Measurements taken from patent US20220072087A1, “SPECIFIC COMBINATION THERAPY FOR TREATMENT OF PANCREATIC CANCER” (BioLineRx Ltd., priority 2019, published 2022).
Bridge positions count the residues as written; N and C are the ends. Square brackets hold non-standard residues; d marks the D form. * marks the point of attachment. 2Nal = N[C@@H](Cc1ccc2ccccc2c1)C(=O)O; Benzoyl(4-F) = O=C(c1ccc(F)cc1)*; Cit = NC(=O)NCCC[C@H](N)C(=O)O

Tests used:
[1] = system: normal human hematopoietic cells; conditions: cited from earlier work
CXCR4 = CXCR4 (Homo sapiens, UniProt P61073); conditions: read-out: IC50 (binds to CXCR4 with high affinity); cited from earlier work
[2] = solubility of BL-8040 powder; format: physicochemical
human keratinocytes = conditions: cited from earlier work

CXCR4, sequence (P61073 whole entry, species assumed): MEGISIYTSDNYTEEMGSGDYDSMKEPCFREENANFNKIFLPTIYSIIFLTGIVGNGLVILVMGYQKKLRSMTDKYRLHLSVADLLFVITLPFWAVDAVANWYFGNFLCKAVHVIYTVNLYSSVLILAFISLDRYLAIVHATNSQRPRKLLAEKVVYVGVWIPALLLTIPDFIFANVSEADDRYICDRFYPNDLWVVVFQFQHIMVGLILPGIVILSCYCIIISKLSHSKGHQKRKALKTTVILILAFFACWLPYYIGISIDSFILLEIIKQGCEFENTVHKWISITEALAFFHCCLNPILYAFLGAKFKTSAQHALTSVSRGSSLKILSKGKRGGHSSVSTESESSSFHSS

Question: Which results are given for “BL-8040 ({Benzoyl(4-F)}-RR[2Nal]CY[Cit]K[dK]PYR[Cit]CR-NH2; disulfide 4-13 (inferred))”?
Answer: effect on viability [1]: did not affect the viability; IC50 (CXCR4): 0.54 to 4.5 nM; solubility ([2]; in 0.45% Sodium Chloride (half normal saline)): freely soluble; solubility ([2]; in water): freely soluble; effect on viability (human keratinocytes): did not affect the viability
